Assay [1] has as its target cynomolgus CD84 (NCBI Accession No. XM_005541244.3), on HEK293T cells (cynomolgus). The assay is described as follows: flow cytometry on HEK293T-Cyno-CD84 cells.
The target in assay [2] is human CD84 (NCBI Accession No. NP_001171808.1), on cells (human) (UniProt Q9UIB8). The assay is described as follows: flow cytometry on HEK293T-hCD84 cells.

The results in this text go back to patent publication EP4818206A1.

Sequence of UniProt Q9UIB8 (Q9UIB8 22-345): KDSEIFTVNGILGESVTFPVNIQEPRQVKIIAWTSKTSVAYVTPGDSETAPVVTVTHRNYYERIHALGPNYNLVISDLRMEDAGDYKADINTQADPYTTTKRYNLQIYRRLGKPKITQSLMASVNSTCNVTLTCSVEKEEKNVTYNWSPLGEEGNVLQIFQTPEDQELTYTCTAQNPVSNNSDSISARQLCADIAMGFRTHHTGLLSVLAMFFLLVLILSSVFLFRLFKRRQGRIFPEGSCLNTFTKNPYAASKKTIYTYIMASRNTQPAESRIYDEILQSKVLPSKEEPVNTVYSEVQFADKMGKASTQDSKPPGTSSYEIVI

In assay [1], “CD84.1.21 (Biolegend; Cat. No. 326002) (antibody)” displayed an EC50 of 16.6 nM and an MFI (max) of 57700 MFI. In assay [2], this substance registered an EC50 of 2.09 nM and an MFI (max) of 134000 MFI.
